Measured values: article PMC9628495
One block for each substance: values may come before it.

How the values were obtained:
[1] = target: trastuzumab (wild-type Fc, prepared in-house) (human); assay: SPR; Biacore T200; HER2 amine-coupled on a CM5 chip (~3000 RU), trastuzumab-Fc variants captured on it (~300 RU), hFcRn injected at 1000, 500, 250, 125 and 62.5 nM in PBS (printed '10x') with 0.05% Tween 20, pH 6.0, 50 μl/min; 1:1 binding model; 'Steady state' for trastuzumab with wild-type Fc
[2] = target: trastuzumab-LS (M428L/N434S) (human); assay: as above
[3] = target: trastuzumab-PFc29 (Q311R/M428L) (human); assay: as above
[4] = target: trastuzumab-PFc41 (L309G/M428L) (human); assay: as above
[5] = target: trastuzumab-YTE (M252Y/S254T/T256E) (human); assay: as above
[6] = target: human FcγRIIIa-158V-GST (dimeric GST-fused form) (human)
Sequence of human FcγRIIIa-158V-GST (dimeric GST-fused form) (human) (P08637 17-208): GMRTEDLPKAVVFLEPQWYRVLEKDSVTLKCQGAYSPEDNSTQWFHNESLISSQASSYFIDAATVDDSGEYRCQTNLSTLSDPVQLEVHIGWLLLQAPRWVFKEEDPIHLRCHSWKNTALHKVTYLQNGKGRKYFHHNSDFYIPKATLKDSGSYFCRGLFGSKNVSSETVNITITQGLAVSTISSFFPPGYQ

[7] = target: hFcRn-SA-Alexa 488, P55899;P61769; assay: flow cytometry (FACS) of E. coli spheroplasts displaying Fc; settings: 40 nM hFcRn-SA-Alexa 488, read off a plot
[8] = target: EFc41 (P228L/L234F/E269D/Q342L/E388D/T394A/M428L) Fc variant displayed on the E. coli inner membrane (human); assay: flow cytometry on cells; single clones rescued from the fourth round of screening, Fc displayed on E. coli spheroplasts, fluorescent hFcRn probe; screening at pH 5.8, pH of the clone analysis not stated; mean fluorescence intensity
[9] = target: PFc29 (Q311R/M428L) Fc variant displayed on the E. coli inner membrane (human); assay: as above
[10] = target: PFc41 (L309G/M428L) Fc variant displayed on the E. coli inner membrane (human); assay: as above
[11] = target: human complement C1q (human) (UniProt P02745)
Sequence of UniProt P02745 (P02745 23-245, chain 1 of 3): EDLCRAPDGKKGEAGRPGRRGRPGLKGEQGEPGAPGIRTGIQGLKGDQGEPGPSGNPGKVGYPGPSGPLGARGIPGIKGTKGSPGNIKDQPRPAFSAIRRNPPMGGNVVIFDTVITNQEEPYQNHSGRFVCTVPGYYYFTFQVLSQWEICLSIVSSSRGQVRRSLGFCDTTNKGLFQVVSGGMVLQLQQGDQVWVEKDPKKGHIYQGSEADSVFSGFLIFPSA
Sequence of UniProt P02745 (P02746 28-253, chain 2 of 3, further chain): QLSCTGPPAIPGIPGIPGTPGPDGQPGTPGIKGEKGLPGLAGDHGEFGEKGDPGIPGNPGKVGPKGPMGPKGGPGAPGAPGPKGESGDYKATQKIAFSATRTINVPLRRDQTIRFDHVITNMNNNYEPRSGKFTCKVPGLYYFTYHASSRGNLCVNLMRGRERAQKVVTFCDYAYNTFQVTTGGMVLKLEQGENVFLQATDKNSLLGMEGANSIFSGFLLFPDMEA
Sequence of UniProt P02745 (P02747 29-245, chain 3 of 3, further chain): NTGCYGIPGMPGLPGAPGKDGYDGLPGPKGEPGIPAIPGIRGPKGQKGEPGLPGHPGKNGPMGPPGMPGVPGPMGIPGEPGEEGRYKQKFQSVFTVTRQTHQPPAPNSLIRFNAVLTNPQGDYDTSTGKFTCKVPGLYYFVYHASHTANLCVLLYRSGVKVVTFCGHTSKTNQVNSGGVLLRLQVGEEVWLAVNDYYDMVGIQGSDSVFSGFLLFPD

[12] = pH 5.8 in the image key (pH 6.0 in the legend), parent: est. 300

Kd [1]: 647 nM
Kd [2]: 81.6 nM
Kd [3]: 149 nM
Kd [4]: 198 nM
Kd [5]: 147 nM
Substance: monomeric human FcRn (human FcRn α chain-His complexed with human β2-microglobulin) (from UniProt P55899 24-297; P61769 21-119)

EC50 of ADCC (ADCC Reporter Bioassay; SKBR-3 target cells, FcγRIIIa-158V-expressing engineered Jurkat effector cells; luminescence) [6]: 0.051 µg/mL
Substance: trastuzumab-PFc29 (Q311R/M428L) (antibody)

EC50 of ADCC (ADCC Reporter Bioassay; SKBR-3 target cells, FcγRIIIa-158V-expressing engineered Jurkat effector cells; luminescence) [6]: 0.12 µg/mL
Substance: trastuzumab (wild-type Fc, prepared in-house) (antibody)

response ([7]; pH 7.4, parent: est. 30): 80 MFI
Substance: wild-type Fc displayed on the E. coli inner membrane Q311R; M428L

MFI [8]: 862
MFI [9]: 1180
MFI [10]: 1910
Substance: Alexa 488-labelled hFcRn probe (FcRn-GST or FcRn-streptavidin) (from UniProt P55899 24-297; P61769 21-119) (complex)

response [7, 12]: 280 MFI
response ([7]; pH 7.4, parent: est. 30): 40 MFI
Substance: wild-type Fc displayed on the E. coli inner membrane Q311R

EC50 of ADCC (ADCC Reporter Bioassay; SKBR-3 target cells, FcγRIIIa-158V-expressing engineered Jurkat effector cells; luminescence) [6]: 0.061 µg/mL
Substance: trastuzumab-LS (M428L/N434S) (antibody)

response [7, 12]: 430 MFI
response ([7]; pH 7.4, parent: est. 30): 70 MFI
Substance: wild-type Fc displayed on the E. coli inner membrane M428L

EC50 of CDC (lysis of Raji cells with normal human complement) [11]: 0.33 µg/mL
Substance: rituximab (wild-type Fc, prepared in-house) (antibody)
